Experimental data reported in patent US20160052980A1, “CRP40 FRAGMENTS FOR THE TREATMENT OF NEUROLOGICAL DISORDERS” (CRP40 INC., priority 2013, published 2016).
Entries after “also recorded” stand apart in the source; their conditions may differ.

Key:
6-OHDA rats = assay: 6-OHDA rat model, apomorphine-induced rotational behaviour; assay type: in vivo; settings: injection in left striatum; apomorphine 0.5 mg/kg s.c.; rotations counted over 10 minutes; versus controls
Procedure: 6-Hydroxydopamine (or 6-OHDA) animal model of dyskinesia and oxidative stress: The 6-OHDA model was chosen for this study as this model is characterized by oxidative stress and degeneration of DA neurons, similar to the condition in human idiopathic PD patients and is a well-known preclinical animal model of PD.
6-OHDA animals, male Sprague-Dawley rats from Charles River (Raleigh, N.C., USA), were prepared by hemi-lateral lesioning of the A9 dopaminergic pathway by injecting 6-OHDA toxin in the substantia nigra par compacta (SNc) region of the rat brain. This unilateral nigrostriatal degeneration cause assymetry in motor behaviours due to imbalanced dopimanergic activity between striata. […] Baseline rotational behavior and locomoter testing were performed before surgical intervention.
The protocol for lesioning is synonymous with our 6-OHDA stereotaxic injection protocol found in Modi et al., (1996). Rats were sent to the McMaster University animal facility and allowed to acclimatize to the colony room for 1 week following arrival. Each rat was handled by the same researcher daily for 7 days before the start of the experiment. Animals were then tested for baseline apomorphine-induced rotations (tested during light hours), and locomotor activity (tested during dark hours) under apomorphine challenge treatment. Animals were then split into groups and injected with CRP40, CRP40 fragments and peptides, and controls. Animals were housed and tested in compliance with the guidelines described in the Guide to the Care and Use of Experimental Animals (Canadian Council on Animal Care, 1984; 1993).
6-OHDA rats were injected in the left striatum with one of the various fragments via stereotaxic surgery. […] Coordinates for striatal injections of treatment are as follows: A/P +0.7 mm, M/L +3.0 mm, and D/V −5.0 mm. A 25 μl Hamilton syringe with a 22 gauge 2 inch blunt needle was used to inject treatments at a rate of 1 μl/min.
Apomorphine injection causes full body rotational behaviour in the direction contralateral to the 6-OHDA lesion. The total number of rotations per fixed time period is used as a measure of improving or worsening symptomology. A holding chamber in which the animal is confined to a circular shaped floor is used to count rotations, as this is an optimal arrangement for these experiments compared to an open field box. 0.5 mg/ml Apomorphine (Sigma: A4393) was dissolved in 0.9% saline with 0.1% ascorbic acid. Animals were injected subcutaneously with apomorphine (0.5 mg/kg body weight). Animals were placed in a clear plastic cylindrical holding tank and allowed 5 minutes for habituation. Following habituation, 10 minutes was allotted and a cell counter was used to record the number of rotations.

[1] = Competitive radioligand binding of [3H]-DA in the presence of cold DA; settings: 1 nM radioligand, 10 μg protein, range of unlabeled DA
Procedure: (§1) Methods. The ability of cold DA to displace bound tritiated dopamine ([3H]-DA) in CRP40, P2P4, or heat-shock protein 47 (a control heat-shock protein that plays a role in collagen synthesis) was assessed by competitively binding [3H]-DA in the presence of different concentrations of unlabeled DA or apomorphine (in 0.1% ascorbic acid) using the same methodology as in (Gabriele et al., 2009). […] At the end of incubation, the bound and free ligands were separated by vacuum filtration through Whatman GF/B filters. The filters were washed with 3×5 ml of Tris-EDTA buffer and the radioactive counts were determined on a Beckman scintillation counter. The Assay Buffer was prepared by adding the following components to 500 ml of double distilled water: 25 ml 1M Tris-HCl (pH 8; 50 mM), […] (1 mM), 100 mM PMSF in ethanol (0.1 mM), 0.508 g MgCl2·6H2O (5 mM), 0.0077 g DTT (0.1 mM), 0.050 g Bacitracin (100 μg/ml), and 0.0025 g
(§2) Soybean Trypsin (5 μg/ml). The final pH was adjusted to 7.4. The filtration Buffer was prepared by adding the following components to 2 L of double distilled water: 100 ml 1M Tris-HCl (pH 8; 50 mM), and 4 ml 500 mM EDTA (1 mM). The final pH was adjusted to 7.4. Statistical analysis of the data was performed utilizing Graph Pad Prism 6.0 software. […]

[2] = Competitive radioligand binding of [3H]-DA in the presence of cold apomorphine; settings: 1 nM radioligand, 10 μg protein, range of unlabeled apomorphine
Procedure: as §1, §2

SH-SY5Y cells [3] = assay: OxiSelect Intracellular ROS Assay, H2O2-induced oxidative stress in transfected cells; assay type: cell-based; settings: overexpression in transfected SH-SY5Y cells; 500 μM H2O2; normal cells had increased ROS
Procedure: The ability of CRP40- and mortalin-transfected SH-SY5Y cells to protect against the harmful effects of mitochondrial ROS in comparison to normal non-transfected SH-SY5Y cells was measured using the OxiSelect™ Intracellular ROS Assay Kit (Green Fluorescence). H2O2 treatment was used to induce oxidative stress in the assay. Increased fluorescence in this assay corresponded to greater ROS levels.

SH-SY5Y cells [4] = assay: ATP-Glo Bioluminometric Cell Viability Assay with MG-132 proteasomal inhibitor; assay type: cell-based; settings: for preservation of ATP levels and cell viability under proteasomal stress: overexpression in SH-SY5Y cells, MG-132; for cell viability in basal condition versus normal non-transfected SH-SY5Y cells: no MG-132, p<0.0001
Excerpt: The ability of CRP40- and mortalin-transfected SH-SY5Y cells to maintain mitochondrial homeostasis, specifically energy production and ATP levels, was examined using the ATP-Glo™ Bioluminometric Cell Viability Assay Kit. MG-132 was used to inhibit proteasomal function and cause increased oxidative stress, which would compromise mitochondrial function, as well as the processes of energy production. The quantitation of ATP levels was thus used as a measure of cell viability.
FIG. 7 summarizes the results of the adenosine triphosphate assays. […] Mortalin was used as a positive control in this assay. […] The data are representative of mean±S.D. of experiments for each condition performed twice, in triplicate.

For “P2P4: SEQ ID NO:5, 60-amino acid fragment spanning amino acids 95-154 of full-length CRP40 (6.6 kDa)”, the “rotational behaviour in the 6-OHDA rat model” value (“rotational behaviour” below) (6-OHDA rats) was “reduction of rotational behavior; also recorded: alleviate rotational symptoms; also recorded: as effective as full-length CRP40”, the “specific binding of [3H]-DA in competition with cold DA (dopamine binding)” value [1] was “does not bind dopamine at all” and the “specific binding of [3H]-DA in competition with cold apomorphine (apomorphine binding)” value [2] was “does not bind; also recorded: do not bind apomorphine”.

In the case of “mortalin: ubiquitously expressed molecular chaperone of 649 amino acids encoded by HSPA9B; positive control in the ATP assay [reference compound]”, the “ROS levels under oxidative stress versus normal non-transfected SH-SY5Y cells” value (SH-SY5Y cells [3]) is reported as “partially preserves mitochondrial homeostasis and ROS levels”, the “preservation of ATP levels and cell viability under proteasomal stress” value (SH-SY5Y cells [4]) is reported as “helps to maintain intracellular ATP levels and energy production; also recorded: partially preserve ATP levels and cell viability” and the “cell viability in basal condition versus normal non-transfected SH-SY5Y cells” value (SH-SY5Y cells [4]) is reported as “significantly lower”.

B1: HSP47: heat shock protein 47, a 47 kDa collagen-specific chaperone used as negative control (protein, UniProt P50454 19-418, looked up)
Serpin H1: AEVKKPAAAAAPGTAEKLSPKAATLAERSAGLAFSLYQAMAKDQAVENILVSPVVVASSLGLVSLGGKATTASQAKAVLSAEQLRDEEVHAGLGELLRSLSNSTARNVTWKLGSRLYGPSSVSFADDFVRSSKQHYNCEHSKINFRDKRSALQSINEWAAQTTDGKLPEVTKDVERTDGALLVNAMFFKPHWDEKFHHKMVDNRGFMVTRSYTVGVMMMHRTGLYNYYDDEKEKLQIVEMPLAHKLSSLIILMPHHVEPLERLEKLLTKEQLKIWMGKMQKKAVAISLPKGVVEVTHDLQKHLAGLGLTEAIDKNKADLSRMSGKKDLYLASVFHATAFELDTDGNPFDQDIYGREELRSPKLFYADHPFIFLVRDTQSGSLLFIGRLVRPKGDKMRDEL
In the case of B1, the “rotational behaviour” value (6-OHDA rats) is reported as “does not elicit a correction of rotational behaviour”.

B2: CRP40: SEQ ID NO:1, full-length human catecholamine-regulated protein, 40 kDa molecular chaperone, splice variant of mortalin (protein, listed as Homo sapiens)
chain: MDSSGPKHLNMKLTRAQFEGIVTDLIRRTIAPCQKAMQDAEVSKSDIGEVILVGGMTRMPKVQQTVQDLFGRAPSKAVNPDEAVAIGAAIQGGVLAGDVTDVLLLDVTPLSLGIETLGGVFTKLINRNTTIPTKKSQVFSTAADGQTQVEIKVCQGEREMAGDNKLLGQFTLIGIPPAPRGVPQIEVTFDIDANGIVHVSAKDKGTGREQQIVIQSSGGLSKDDIENMVKNAEKYAEEDRRKKERVEAVNMAEGIIHDTETKMEEFKDQLPADECNKLKEEISKMRELLARKDSETGENIRQAASSLQQASLKLFEMAYKKMASEREGSGSSGTGEQKEDQKEEKQ
For B2, the “rotational behaviour” value (6-OHDA rats) was “alleviate rotational symptoms; also recorded: could correct movement impairments”, the “specific binding of [3H]-DA in competition with cold DA (dopamine binding)” value [1] was “binds DA with high capacity and low affinity; also recorded: binds dopamine with high capacity and low affinity” and the “specific binding of [3H]-DA in competition with cold apomorphine (apomorphine binding)” value [2] was “binds apomorphine; also recorded: binds dopamine”. The “ROS levels under oxidative stress versus normal non-transfected SH-SY5Y cells” value (SH-SY5Y cells [3]) was “partially preserves mitochondrial homeostasis and ROS levels”, the “preservation of ATP levels and cell viability under proteasomal stress” value (SH-SY5Y cells [4]) was “helps to maintain intracellular ATP levels and energy production; also recorded: partially preserve ATP levels and cell viability” and the “cell viability in basal condition versus normal non-transfected SH-SY5Y cells” value (SH-SY5Y cells [4]) was “significantly lower”.

B3: P1P3: SEQ ID NO:2, P1P3 fragment of human CRP40 (11.1 kDa) (protein, listed as Homo sapiens)
chain: MDSSGPKHLNMKLTRAQFEGIVTDLIRRTIAPCQKAMQDAEVSKSDIGEVILVGGMTRMPKVQQTVQDLFGRAPSKAVNPDEAVAIGAAIQGGVLA
In the case of B3, the “rotational behaviour” value (6-OHDA rats) is reported as “not effective”.

B4: P1P5: SEQ ID NO:4, P1P5 fragment of human CRP40 (27 kDa) (protein, listed as Homo sapiens)
chain: MDSSGPKHLNMKLTRAQFEGIVTDLIRRTIAPCQKAMQEVSKSDIGEVILVGGMTRMPKVQQTVQGLFGRAPSKAVNPDEAVAIGAAIQGGVLAGDVTDVLLLDVTPLSLGIETLGGVFTKLINRNTTIPTKKSQVFSTAADGQTQVEIKVCQGEREMAGDNKLLGQFTLIGIPPAPRGVPQIEVTFDIDANGIVHVSAKDKGTGRERQIVIQSSGGLSKDDIEENMVKNAEKYAEEDRRKKERV
For B4, the “rotational behaviour” value (6-OHDA rats) was “reduction of rotational behavior; also recorded: effective”.
